Data: patent US20230035659A1, “Compositions and Methods for TTR Gene Editing and Treating ATTR Amyloidosis Comprising a Corticosteroid or Use Thereof” (Intellia Therapeutics, Inc., priority 2019, published 2023)
Strand notation (5' to 3'): a small letter for the sugar, then the base; units joined by * are phosphorothioate-linked, units joined directly phosphodiester-linked; [ ] holds rarer units or linkages, { } end groups; capitals alone tell only the bases. m = 2'-O-methyl; r = 2'-OH (RNA)

Assays:
[1] = tested on: TTR; experiment: TTR editing in primary human hepatocytes treated with LNP formulated Spy Cas9 mRNA (SEQ ID NO: 2) and sgRNAs, 12.5 ng mRNA; type: cell-based; details: for 12.5 ng mRNA, 3.9 nM sgRNA, Avg % Edit: LNP formulated Spy Cas9 mRNA (SEQ ID NO: 2) and sgRNA, 72 hours
Procedure: (§1) Primary liver hepatocytes. Primary human liver hepatocytes (PHH) and primary cynomolgus liver hepatocytes (PCH) (Gibco) were cultured per the manufacturer's protocol (Invitrogen, protocol 11.28.2012). In brief, the cells were thawed and resuspended in hepatocyte thawing medium with supplements (Gibco, Cat. CM7000) followed by centrifugation at 100 g for 10 minutes for human and 80 g for 4 minutes for cyno. The supernatant was discarded and the pelleted cells resuspended in hepatocyte plating medium plus supplement pack (Invitrogen, Cat. A1217601 and CM3000). Cells were counted and plated on Bio-coat collagen I coated 96-well plates (ThermoFisher, Cat. 877272) at a density of 33,000 cells/well for human or 60,000 cells/well for cyno (or 65,000 cells/well when assaying effects on TTR protein, described further below). Plated cells were allowed to settle and adhere for 6 or 24 hours in a tissue culture incubator at 37° C. and 5% CO2 atmosphere. After incubation cells were checked for monolayer formation and media was replaced with hepatocyte culture medium with serum-free supplement pack (Invitrogen, Cat. A1217601 and CM4000).
In general, the lipid nanoparticle components were dissolved in 100% ethanol with the lipid component of various molar ratios. The RNA cargos were dissolved in 25 mM citrate, 100 mM NaCl, pH 5.0, resulting in a concentration of RNA cargo of approximately 0.45 mg/mL. The LNPs were formulated with a lipid amine to RNA phosphate (N:P) molar ratio of about 4.5 or about 6, with the ratio of mRNA to gRNA at 1:1 by weight.
The LNPs were formed by microfluidic mixing of the lipid and RNA solutions using a Precision Nanosystems NanoAssemblr™ Benchtop Instrument, according to the manufacturer's protocol. A 2:1 ratio of aqueous to organic solvent was maintained during mixing using differential flow rates. After mixing, the LNPs were collected, diluted in water (approximately 1:1 v/v), held for 1 hour at room temperature, and further diluted with water (approximately 1:1 v/v) before final buffer exchange. The final buffer exchange into 50 mM Tris, 45 mM NaCl, 5% (w/v) sucrose, pH 7.5 (TSS) was completed with PD-10 desalting columns (GE). If required, formulations were concentrated by centrifugation with Amicon 100 kDa centrifugal filters (Millipore). The resulting mixture was then filtered using a 0.2 μm sterile filter. The final LNP was stored at −80° C. until further use.
(§2) Additional PCR was performed per the manufacturer's protocols (Illumina) to add chemistry for sequencing. The amplicons were sequenced on an Illumina MiSeq instrument. The reads were aligned to a reference genome (e.g., the human reference genome (hg38), the cynomologus reference genome (mf5), the rat reference genome (rn6), or the mouse reference genome (mm10)) after eliminating those having low quality scores. The resulting files containing the reads were mapped to the reference genome (BAM files), where reads that overlapped the target region of interest were selected and the number of wild type reads versus the number of reads which contain an insertion, substitution, or deletion was calculated.
(§3) The editing percentage (e.g., the “editing efficiency” or “percent editing” or “indel frequency”) is defined as the total number of sequence reads with insertions/deletions (“indels”) or substitutions over the total number of sequence reads, including wild type.
Lipid nanoparticle formulations of modified sgRNAs targeting human TTR and the cyno matched sgRNA sequences were tested on primary human hepatocytes and primary cyno hepatocytes in a dose response curve. Primary human and cyno hepatocytes were plated as described in Example 1. Both cell lines were incubated at 37° C., 5% CO2 for 24 hours prior to treatment with LNPs. The LNPs used in the experiments detailed in Tables 18-21 were prepared using the Nanoassemblr™ procedure, each containing the specified sgRNA and Cas9 mRNA (SEQ ID NO:2), each having Lipid. […]

[2] = tested on: TTR; experiment: TTR editing dose response (EC50, maximum editing) in primary cyno hepatocytes treated with LNP formulated U-depleted Spy Cas9 mRNA and sgRNAs; type: cell-based, cynomolgus monkey
Procedure: as §1
For LNPs prepared using the cross-flow technique, the LNPs were formed by impinging jet mixing of the lipid in ethanol with two volumes of RNA solutions and one volume of water. The lipid in ethanol is mixed through a mixing cross with the two volumes of RNA solution. A fourth stream of water is mixed with the outlet stream of the cross through an inline tee. (See WO2016010840 FIG. 2.) The LNPs were held for 1 hour at room temperature, and further diluted with water (approximately 1:1 v/v). Diluted LNPs were concentrated using tangential flow filtration on a flat sheet cartridge (Sartorius, 100 kD MWCO) and then buffer exchanged by diafiltration into 50 mM Tris, 45 mM NaCl, 5% (w/v) sucrose, pH 7.5 (TSS). Alternatively, the final buffer exchange into TSS was completed with PD-10 desalting columns (GE). If required, formulations were concentrated by centrifugation with Amicon 100 kDa centrifugal filters (Millipore). The resulting mixture was then filtered using a 0.2 μm sterile filter. The final LNP was stored at 4° C. or −80° C. until further use.
as §2, §3
Lipid nanoparticle formulations of modified sgRNAs targeting human TTR and the cyno matched sgRNA sequences were tested on primary human hepatocytes and primary cyno hepatocytes in a dose response curve. Primary human and cyno hepatocytes were plated as described in Example 1. Both cell lines were incubated at 37° C., 5% CO2 for 24 hours prior to treatment with LNPs. The LNPs used in the experiments detailed in Tables 20-22 were prepared using the cross-flow procedure described above but purified using PD-10 columns (GE Healthcare Life Sciences) and concentrated using Amicon centrifugal filter units (Millipore Sigma), each containing the specified sgRNA and Cas9 mRNA (SEQ ID NO:1). […] LNPs were incubated in hepatocyte maintenance media containing 6% cyno serum at 37° C., 5% CO2 for 5 minutes. […]

[3] = tested on: potential off-target genomic sites; experiment: Off-target analysis by oligo insertion based assay in primary human hepatocytes (sgRNAs); type: cell-based; details: 100 ng Cas9 mRNA, 25 nM sgRNA, 12.5 nM donor oligo, 48 h
Procedure: Off-target analysis of sgRNAs targeting TTR was performed in primary human hepatocytes (PHH) as described in Example 5, with the following modifications. PHH were plated at a density of 33,000 cells per well on collagen-coated 96-well plates as described in Example 1. Twenty-four hours post plating, cells were washed with media and transfected using Lipofectamine RNAiMAX (ThermoFisher, Cat. 13778150) as described in Example 1. Cells were transfected with a lipoplex containing 100 ng Cas9 mRNA, immediately followed by the addition of another lipoplex containing 25 nM of the sgRNA and 12.5 nM of the donor oligo (0.3 μL/well). Cells were lysed 48 hours post-transfection and gDNA was extracted and analyzed as further described in Example 5. The data is graphically represented in FIG. 20.
Fewer sites were detected in PHH for every guide tested as compared to the HekCas9 cell line, with no unique sites detected in PHH alone.

[4] = LNP formulated U-depleted Spy Cas9 mRNA and human specific sgRNAs

Molecule | 12.5 ng mRNA, 3.9 nM sgRNA, Avg % Edit [1] [%] | Max Editing [2, 4] [%] | # Sites in PHH (off-target integration sites detected) [3] | Max Editing ([2]; LNP formulated U-depleted Spy Cas9 mRNA and cyno specific sgRNAs) [%] | dose response curve of % editing (shape) ([1]; LNP formulated Spy Cas9 mRNA and sgRNA, 8 point 2-fold dose response starting at 100 ng mRNA)
G000499: TTR sgRNA modified sequence, Human, SEQ ID NO: 106; guide sequence of CR005303 (nucleic acid) guide: mU*mG*mA*rArUrCrCrArArGrUrGrUrCrCrUrCrUrGrArGrUrUrUrUrArGrAmGmCmUmAmGmAmAmAmUmAmGmCrArArGrUrUrArArArArUrArArGrGrCrUrArGrUrCrCrGrUrUrArUrCrAmAmCmUmUmGmAmAmAmAmAmGmUmGmGmCmAmCmCmGmAmGmUmCmGmGmUmGmCmU*mU*mU*mU | 16.07 | 74.94 | 1 |  | 
G000482: TTR sgRNA modified sequence, Human, SEQ ID NO: 89; guide sequence of CR003365 (nucleic acid) guide: mU*mG*mU*rArGrArArGrGrGrArUrArUrArCrArArArGrGrUrUrUrUrArGrAmGmCmUmAmGmAmAmAmUmAmGmCrArArGrUrUrArArArArUrArArGrGrCrUrArGrUrCrCrGrUrUrArUrCrAmAmCmUmUmGmAmAmAmAmAmGmUmGmGmCmAmCmCmGmAmGmUmCmGmGmUmGmCmU*mU*mU*mU | 19.10 | 97.47 | 2 |  | 
G000486: TTR sgRNA modified sequence, Human, SEQ ID NO: 93; guide sequence of CR003339 (nucleic acid) guide: mA*mC*mA*rCrArArArUrArCrCrArGrUrCrCrArGrCrArGrUrUrUrUrArGrAmGmCmUmAmGmAmAmAmUmAmGmCrArArGrUrUrArArArArUrArArGrGrCrUrArGrUrCrCrGrUrUrArUrCrAmAmCmUmUmGmAmAmAmAmAmGmUmGmGmCmAmCmCmGmAmGmUmCmGmGmUmGmCmU*mU*mU*mU | 61.33 |  | 0 |  | 
G000480: TTR sgRNA modified sequence, Human, SEQ ID NO: 87; guide sequence of CR003353 (nucleic acid) guide: mA*mA*mA*rGrGrCrUrGrCrUrGrArUrGrArCrArCrCrUrGrUrUrUrUrArGrAmGmCmUmAmGmAmAmAmUmAmGmCrArArGrUrUrArArArArUrArArGrGrCrUrArGrUrCrCrGrUrUrArUrCrAmAmCmUmUmGmAmAmAmAmAmGmUmGmGmCmAmCmCmGmAmGmUmCmGmGmUmGmCmU*mU*mU*mU | 59.33 | 20.32 | 2 |  | 
G000488: TTR sgRNA modified sequence, Human, SEQ ID NO: 95; guide sequence of CR003346 (nucleic acid) guide: mA*mA*mA*rGrUrUrCrUrArGrArUrGrCrUrGrUrCrCrGrGrUrUrUrUrArGrAmGmCmUmAmGmAmAmAmUmAmGmCrArArGrUrUrArArArArUrArArGrGrCrUrArGrUrCrCrGrUrUrArUrCrAmAmCmUmUmGmAmAmAmAmAmGmUmGmGmCmAmCmCmGmAmGmUmCmGmGmUmGmCmU*mU*mU*mU | 44.80 | 21.63 | 0 |  | 
G000483: TTR sgRNA modified sequence, Human, SEQ ID NO: 90; guide sequence of CR005298 (nucleic acid) guide: mU*mC*mC*rArCrUrCrArUrUrCrUrUrGrGrCrArGrGrArGrUrUrUrUrArGrAmGmCmUmAmGmAmAmAmUmAmGmCrArArGrUrUrArArArArUrArArGrGrCrUrArGrUrCrCrGrUrUrArUrCrAmAmCmUmUmGmAmAmAmAmAmGmUmGmGmCmAmCmCmGmAmGmUmCmGmGmUmGmCmU*mU*mU*mU | 7.37 | 56.52 | 0 |  | 
G000502: TTR Cyno specific sgRNA modified sequence, SEQ ID NO: 114; guide sequence of CR000689; cross homologous between mouse and cyno (nucleic acid) guide: mA*mC*mA*rCrArArArUrArCrCrArGrUrCrCrArGrCrGrGrUrUrUrUrArGrAmGmCmUmAmGmAmAmAmUmAmGmCrArArGrUrUrArArArArUrArArGrGrCrUrArGrUrCrCrGrUrUrArUrCrAmAmCmUmUmGmAmAmAmAmAmGmUmGmGmCmAmCmCmGmAmGmUmCmGmGmUmGmCmU*mU*mU*mU |  |  |  | 100.05 | 
G000484: TTR sgRNA modified sequence, Human, SEQ ID NO: 91; guide sequence of CR003367 (nucleic acid) guide: mA*mG*mA*rCrArCrCrArArArUrCrUrUrArCrUrGrGrArGrUrUrUrUrArGrAmGmCmUmAmGmAmAmAmUmAmGmCrArArGrUrUrArArArArUrArArGrGrCrUrArGrUrCrCrGrUrUrArUrCrAmAmCmUmUmGmAmAmAmAmAmGmUmGmGmCmAmCmCmGmAmGmUmCmGmGmUmGmCmU*mU*mU*mU | 16.67 | 0.22 | 0 |  | 
G000494: TTR sgRNA modified sequence, Human, SEQ ID NO: 101; guide sequence of CR003360 (nucleic acid) guide: mG*mU*mG*rArGrUrCrUrGrGrArGrArGrCrUrGrCrArUrGrUrUrUrUrArGrAmGmCmUmAmGmAmAmAmUmAmGmCrArArGrUrUrArArArArUrArArGrGrCrUrArGrUrCrCrGrUrUrArUrCrAmAmCmUmUmGmAmAmAmAmAmGmUmGmGmCmAmCmCmGmAmGmUmCmGmGmUmGmCmU*mU*mU*mU | 6.37 | 60.84 | 0 |  | 
G000570: TTR sgRNA modified sequence, Human, SEQ ID NO: 111; guide sequence of CR003347 (nucleic acid) guide: mC*mA*mU*rUrGrArUrGrGrCrArGrGrArCrUrGrCrCrUrGrUrUrUrUrArGrAmGmCmUmAmGmAmAmAmUmAmGmCrArArGrUrUrArArArArUrArArGrGrCrUrArGrUrCrCrGrUrUrArUrCrAmAmCmUmUmGmAmAmAmAmAmGmUmGmGmCmAmCmCmGmAmGmUmCmGmGmUmGmCmU*mU*mU*mU | 88.30 | 96.73 | 1 |  | uncharacteristic dose response curve
